Experimental data: the supplement of paper PMC10567573
± gives the standard deviation.

Experiment: protein stability index of a GFP-peptide fusion (GPS, HEK-293T) (PSI 1-6); higher = more stable
Conditions: c terminus: a fixed tail appended
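Note: 24-mer peptide tiles fused after GFP, lentivirally expressed, FACS-sorted into six equal bins by GFP/DsRed ratio, decoded by Illumina sequencing, PSI is the read-weighted mean bin number.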

Sequence | protein stability index (treatment: DMSO) | protein stability index (treatment: MLN4924 1 uM, 8 h)
EGVSLTAVLTTHHHWDHARGNPEL [HAGHL] | 2.72 ± 0.27 | 2.87 ± 0.42
EGYILREDGKTCRRKDVCQAIDHG [MATN2] | 4.31 ± 0.63 | 4.44 ± 0.22
EIIELRRTVNALEIELQAQHNLRD [KRT34] | 2.89 ± 0.36 | 3.03 ± 0.22
EKDRIKSFTTNEKAILEQNFRDLV [TRIM29] | 3.53 ± 0.27 | 3.82 ± 0.43
EKETQIIASIGRHRYIAYMANQEA [IQUB] | 3.07 ± 0.32 | 2.88 ± 0.46
EKGEKGDRAGDASKDILLGPWDMV [SCARA5] | 4.41 ± 0.37 | 4.71 ± 0.36
EKVKACQGQYETIERLRSLSPKIM [TBC1D10A] | 3.02 ± 0.28 | 3.23 ± 0.16
ELEIELQSQLSMKAGLENSLAETE [KRT15] | 4.77 ± 0.33 | 4.75 ± 0.25
ELKMRAIQAEERLDMEKRRCRQSL [LRRC45] | 3.92 ± 0.22 | 4.13 ± 0.11
ELNAEKFKNSLLQKELKKAQMAKA [WEE1] | 4 ± 0.84 | 3.42 ± 0.4
ELQLEQSRAANQEQRANDLEQIME [CEP70] | 5.1 ± 0.15 | 5.16 ± 0.092
ELQLSDLLKQGYNKTLLRLRLRKE [PKD2L1] | 2.39 ± 0.26 | 2.76 ± 0.24
ELSSVHPPHYFFTYRIRIEMSKDA [FBXO3] | 2.15 ± 0.21 | 2.18 ± 0.42
ELVLCVLVSIRNNRNLQKFSLFGD [FBXO33] | 2.87 ± 0.54 | 2.86 ± 0.34
ENDSTPTVSTSEVTSQQEPQIPVD [TAF7L] | 5.53 ± 0.2 | 5.59 ± 0.26
ENERVRGLETGDWGGAPKEGSIWR [ZSWIM9] | 4.29 ± 0.32 | 4.16 ± 0.28
ENIDSLYNVNLSKGRAALSATVPR [SCNN1D] | 3.94 ± 0.39 | 4.04 ± 0.24
ENRVSTLRVSPDGTAFCSGSWDHT [GNB5] | 3.95 ± 0.14 | 3.9 ± 0.19
EPEDMETLEEKFSDVHPVALNFMK [CDKL4] | 4.68 ± 0.3 | 4.89 ± 0.19
EPERQVQHEESTEGEADHSGYAGE [UFD1] | 5.61 ± 0.28 | 5.7 ± 0.24
EPGRLYLDLILAILALELICSLIC [TMEM192] | 2.35 ± 0.49 | 2.21 ± 0.34
EQLAALSQAPVNKPKKKKEKKEKE [BRD3] | 5.38 ± 0.2 | 5.67 ± 0.2
EQLGSGDGIPQVYYFGPCGKYNAM [CSNK1G3] | 2.34 ± 0.14 | 2.56 ± 0.17

Sequence | protein stability index (treatment: DMSO) | protein stability index (treatment: MLN4924 1 uM, 8 h)
EQWDRLLVLYPTSLAIFSEELDGL [PLEKHN1] | 2.37 ± 0.3 | 2.44 ± 0.43
ERIRLLRQKREAAARKKYNLLQDS [C18orf25] | 3.25 ± 0.34 | 3.6 ± 0.36
ERLFGSAANVVSAKRNRLAPAHVD [ZBED1] | 3.65 ± 0.41 | 3.66 ± 0.34
ERSDLEEDNEREGTENGAIDAVPV [ZC3H15] | 5.5 ± 0.19 | 5.5 ± 0.33
ERSDPVEQGKPVIPAAVLAGFTGS [ETS2] | 4.59 ± 0.23 | 4.7 ± 0.31
ERSRGRSISRGRHARTHPQTALLE [MATN2] | 4.31 ± 0.53 | 4.72 ± 0.3
ESEEEGPWEPPVLPILTWPVLQSR [HDAC6] | 4.5 ± 0.17 | 4.37 ± 0.15
ETLEASVGPRETEEKVRDLLWAKF [TOR1AIP2] | 3.98 ± 0.22 | 3.92 ± 0.3
ETRPAKRITITESNMKSRYTTEFH [WEE1] | 3.49 ± 0.27 | 3.6 ± 0.071
ETSVFDQFGIKDVFDNAIRAALIS [RHOBTB1] | 2.3 ± 0.22 | 2.18 ± 0.33
EVCYEDLGCFSDTEPWGGTAIRPL [PNLIPRP1] | 3.18 ± 0.19 | 3.54 ± 0.66
EVEVVEEAKCCCFFKRKRKKTAQR [CSNK1G1] | 4.4 ± 0.41 | 4.45 ± 0.12
EVIISWSEKASKKYVSKELAKEIR [EIF5] | 2.34 ± 0.15 | 2.57 ± 0.26
EWFQNCYARYHQAFADRDQSERQR [TEKT4] | 3.41 ± 0.24 | 3.21 ± 0.21
EYDYLFKVVLIGDSGVGKSNLLSR [RAB11A] | 2.6 ± 0.65 | 2.39 ± 0.7
EYECRRRMLMKRLDVTVQSFGWSD [FAM98B] | 2.48 ± 0.14 | 2.45 ± 0.11
EYLLSFPAGKTPVPAGEEEGELGE [VPS39] | 5.25 ± 0.43 | 5.31 ± 0.071
EYVLLKALALANSDSVHIEDAEAV [ESRRA] | 3.36 ± 0.33 | 3.55 ± 0.37
FAHHSLFLHVRKATRAMGLLNTLS [TMEM175] | 2.6 ± 0.78 | 2.18 ± 0.23
FAKKLVDRTWTLCGTPEYLAPEVI [PRKX] | 2.63 ± 0.8 | 2.29 ± 0.19
FCISLLRERFMECLMIGRDLVRLL [INTS3] | 2.27 ± 0.28 | 2.29 ± 0.13
FCQMLAVVETINAAIGVTTSPVLP [HACD3] | 2.69 ± 0.4 | 2.54 ± 0.23
FDAALVSFINFFTSVLATLVVFAV [SLC6A17] | 3.44 ± 0.4 | 3.44 ± 0.97

Sequence | protein stability index (treatment: DMSO) | protein stability index (treatment: MLN4924 1 uM, 8 h)
FEDAKEKMREFTKTIKRPFGVKYN [TPH1] | 2.9 ± 0.21 | 3.1 ± 0.26
FEGRTPMHVACQHGQENIVRILLR [RIPK4] | 2.95 ± 0.49 | 2.95 ± 0.2
FELEDSNEIFTQLYRTLFSVINNG [PDS5B] | 2.15 ± 0.47 | 2.41 ± 0.23
FENGQKAAVVHHFESFPAGSTLIF [TOR1AIP2] | 2.05 ± 0.42 | 2.12 ± 0.2
FEQTPALTKHEWTEALGCDPPLSQ [ZNF8] | 4.56 ± 0.26 | 4.6 ± 0.13
FHIMKRKFTNKEWETIRSFKDEWT [AASDHPPT] |  | 2.09 ± 0.16
FIFTFVKKKKIGFYFEVCGMMVES [PCDHGA10] | 3.34 ± 0.57 | 
FKDSAGKSPTGLKLKNDTENHQPV [ZNF75A] | 4.88 ± 0.22 | 5.03 ± 0.18
FKWYLENVYPEMRVYNNTLTYGEV [GALNT9] | 2.38 ± 0.48 | 2.43 ± 0.35
FLEALSSRYLGDSGLDDFFLDIDT [SERTAD3] | 2.4 ± 0.4 | 2.41 ± 0.39
FLIGAYAVIYLKKTPEEAYRALLS [CDC14A] | 2.71 ± 0.8 | 2.7 ± 0.6
FLLLYLFTLGTNAIIISTIVLDRA [OR10K2] | 3.39 ± 0.28 | 3.23 ± 0.53
FLSYYRLTRFLSRVIKCDPDCLRA [CCND1] | 2.23 ± 0.56 | 2.25 ± 0.54
FLYSHGVPRTLSPHQYHSVHGVGM [TBX5] | 2.31 ± 0.38 | 2 ± 0.24
FMEKRNQWLVSQLSAASPDTGHDS [TRAF3IP2] | 2.76 ± 0.34 | 3.21 ± 0.58
FNEQTWEVSQQDPSHGEVGEHKDR [ZSCAN9] | 5.38 ± 0.26 | 5.35 ± 0.17
FQILKYLFQIDVYDFMNSAFSPIV [MIA2] | 2.75 ± 0.038 | 2.85 ± 1
FQIYDKEASGYVDRDMFFKICESL [EFHC1] | 2.29 ± 0.15 | 2.5 ± 0.15
FQMEKIEHGYENMNHFTVNLNREE [TRIM55] | 3.21 ± 0.47 | 3.57 ± 0.59
FRNIKQEPFSARVLVLCVFNSILP [SOAT1] | 2.9 ± 0.35 | 2.87 ± 0.59
FRRAPSWRKRFRPREHHGRGGMLS [PPFIA4] | 3.11 ± 0.27 | 3.99 ± 0.078
FRRGEKLRVISDEGGWWKAISLST [SLA] | 3.3 ± 1.1 | 2.13 ± 0.72
FSFLGLLALGVSLLCNAITGITLL [PTGFR] | 2.77 ± 0.31 | 3.09 ± 0.98

Sequence | protein stability index (treatment: DMSO) | protein stability index (treatment: MLN4924 1 uM, 8 h)
FSRENLSKDLYLISQMDSDQFIPI [LARP4] | 2.17 ± 0.45 | 2.13 ± 0.36
FSTGIKMGQHISLAPIHKLEEALY [MNAT1] | 2.28 ± 0.48 | 2.08 ± 0.26
FSTYTSDKDENKLSEASGGRAENG [ZC3H15] | 5.38 ± 0.44 | 5.23 ± 0.58
FTNCYIYNKPTDDIVLMAQALEKI [BRD3] | 2.43 ± 0.45 | 1.97 ± 0.12
FTQPLLPAFTVWCGSFQVTTGLQV [FSD1] | 3 ± 0.12 | 3.03 ± 0.5
FTVRPDVTQNSTAEPSRFSSSDSD [FCHO1] | 5.09 ± 0.32 | 5.06 ± 0.14
FVEEIKKLATQHKQLISQTKKKQW [ZMYND11] | 2.73 ± 0.77 | 2.13 ± 0.33
FVGAGRMAGAIAQGLIRAGKVEAQ [PYCR3] | 2.96 ± 0.52 | 2.9 ± 0.33
FVHELHLSRLQRVKFCLLGALLAP [LPCAT4] | 2.41 ± 0.71 | 2.06 ± 0.34
FVLDENDNAPAVLHPRPDWEHSAP [PCDHGC5] | 3.33 ± 0.22 | 3.62 ± 0.31
FVLNRLQYAIISEAWRLVEEGIVS [CRYL1] | 3.17 ± 0.66 | 3.09 ± 0.24
FVQREEQLQFLIRYHRFISFALYL [CDS1] | 2.4 ± 0.68 | 2.68 ± 0.9
FYQLVWSALPFITYLENKGHRYPC [POP5] | 2.88 ± 0.69 | 3.09 ± 0.53
GAAAQGQTQTVAAQAQALAAQAAA [PI4K2A] | 5.07 ± 0.21 | 4.95 ± 0.21
GACIVNSENKIVGIGYNGMPNGCS [DCTD] | 3.04 ± 0.33 | 3.21 ± 0.43
GALETRSLKDHKVSFLRSGTKLIF [C2CD2L] | 2.13 ± 0.24 | 2.1 ± 0.42
GANKEVQELLERGLLQLDHRGLRC [RSAD1] | 3.39 ± 0.12 | 3.66 ± 0.31
GCGADSKKKRPPQPPEESQPPQSQ [PLK2] | 5.52 ± 0.35 | 5.53 ± 0.18
GCGYGCQLHHVVYCFMIAYGTQRT [FUT8] | 3.19 ± 0.45 | 3.06 ± 0.57
GCLGHGSLTDISQPTIVEALLGYE [NEK8] | 3.1 ± 0.11 | 3.18 ± 0.4
GDFWRMIWEQRSATVVMMTKLEER [PTPRD] | 2.77 ± 0.38 | 2.36 ± 0.18
